# Entries after “also recorded” stand apart in the source; their conditions may differ.
# B1: BMP7: Recombinant human BMP7, an inducer of brown adipogenesis (protein, UniProt P18075 293-431, looked up)
# Bone morphogenetic protein 7: STGSKQRSQNRSKTPKNQEALRMANVAENSSSDQRQACKKHELYVSFRDLGWQDWIIAPEGYAAYYCEGECAFPLNSYMNATNHAIVQTLVHFINPETVPKPCCAPTQLNAISVLYFDDSSNVILKKYRNMVVRACGCH
# System: hBAT progenitors with hUCP1-promoter-Luc/GFP
# Assay: Transplantation of UCP1 reporter progenitors into nude mice, in vivo bioluminescent imaging
# Parameters: species or system BALB/c athymic nude mice
# Settings: mice implanted with hBAT progenitors; 3.3 nM BMP7 pretreatment of progenitors 6 days
# From the text: FIG. 7A depicts a transgenic UCP1 reporter system for measuring UCP1 gene expression. A bicistronic luciferase and green fluorescent protein (GFP) reporter was coupled to a 4.1 kb human UCP1 promoter fragment. FIG. 7B depicts the organization of plasmid pLV.ExBi.P/Puro-hUCP1promoter-Luc(firefly)-T2A-hrGFP, which contains the UCP1 reporter system described in FIG. 7A. FIG. 7C depicts time-lapse microscopy of differentiating hBAT-SVF cells containing the UCP1 reporter system. UCP1 expression was monitored by visualization of GFP. FIG. 7D depicts that in hBAT-SVF and hWAT-SVF cells stably expressing the reporter construct, luciferase activity (Right) was strongly correlated with endogenous UCP1 gene expression (Left) during the course of differentiation (see FIG. 2A and Methods). For determination of UCP1 mRNA levels, total RNAs were isolated on day 0, 2, 3, 5, 9, 12, 15 and 18; for luciferase activity assay, cell lysates were collected on day 0, 6, 9 and 18. Data are presented as fold changes compared to hWAT-SVF on day 0 (mean±s.e.m., n=3). […]
# Human immortalized white and brown fat progenitors with hUCP1-promoter-Luc/GFP were grown in the presence and absence of 3.3 nM BMP7 for 6 days to reach confluence. […] The luminescence intensity in regions of interest from each image was quantified to examine the viability of the implanted cells. […]
molecule,measurement,value
B1,luciferase activity (UCP1 reporter) in vivo,further induced; also recorded: increased further

# From patent publication US11078259B2, “Methods and compositions for promoting thermogenic potential” (Joslin Diabetes Center, Inc., priority 2015, dated 2021)
